{"source": "patent US20220241369A1", "about": "“COMPOSITIONS AND METHODS OF MODULATING INFLAMMATION” (La Jolla Institute for Allergy and Immunology, priority 2018, published 2022)", "molecules": {"B1": {"name": "HRF-2CA-His6, a monomeric mutant of mouse HRF (protein)", "chain": "MIIYRDLISHDELFSDIYKIREIADGLALEVEGKMVSRTEGAIDDSLIGGNASAEGPEGEGTESTVVTGVDIVMNHHLQETSFTKEAYKKYIKDYMKSLKGKLEEQKPERVKPFMTGAAEQIKHILANFNNYQFFIGENMNPDGMVALLDYREDGVTPFMIFFKDGLEMEKAHHHHHH"}}, "key": {"[1]": {"tested_on": "c-Kit+ mucosal mast cells of the small intestine", "experiment": "Ex vivo mast cell activation test (MCAT)", "format": "cell-based, mouse", "conditions": "cells from allergic mice, HRF-2CA 300 μg/ml", "description": "FIGS. 2A-2C show mucosal mast cells can be activated ex vivo by antigen. Cells were released with EDTA from small intestines of non-sensitized/OVA challenged (Cont) or OVA-sensitized/OVA-challenged (OVA) mice, and mononuclear cells were selected. The cells were incubated for 15 min at 37° C. with OVA or anti-IgE antibody, and activation of Kit^+ mast cells was measured by flow cytometry (FIG. 2A, FIG. 2B). **, ***: p<0.01, p<0.001 by Student's t-test. (n=2; a representative of 2 independent experiments) (FIG. 2C) Mucosal cells derived from OVA-sensitized/OVA-challenged mice were stimulated with PBS (n=4), OVA (10 ng/ml, n=4) or HRF dimer (100 μg/ml, n=2) in the presence or absence of HRF-2CA (300 μg/ml).\nFIGS. 11A-11C show HRF dimer, but not monomer can activate mast cells. (FIG. 11A) Purified dimeric and monomeric HRF expressed in E. coli. Recombinant HRF-[…] was purified first by Histrap HP and then Sephacryl S-200 HR16/60. Two peaks were observed by Sephacryl size fractionation. The first (Fr1) and second (Fr3) peaks contained dimer and monomer, respectively, as shown by SDS-PAGE. Fr1 and Fr3 were used for mast cell stimulation. (FIG. 11B) Cells were released with 10 mM EDTA from small intestines of OVA-sensitized/OVA-challenged mice, and mononuclear cells were selected. The cells were incubated for 15 min at 37° C. with mHRF monomer or dimer (100 μg/ml), or PBS, and Kit^+ mast cell activation (LAMP-1^+) was measured by flow cytometry (n=3). (FIG. 11C) Control experiments indicate an excellent specificity of the assay for HRF multimers. HRF-2CA (2CA) was used as a monomer control (n=2 for each concentration). Note that total concentrations of the 1:9 mixture of dimer:monomer gave almost the same luminescence values as did ten-fold less concentrations of dimer.\nTwenty-four hours after the last OVA challenge, mice were sacrificed and small intestines (0.5-15 cm from stomach) were collected. The intestinal tissues were opened longitudinally and washed with PBS. Then, the tissues were incubated with 10 mM EDTA-PBS for 30 min at 37° C. After incubation, the tissues were transferred to 30 ml PBS in 50 ml tubes and vigorously shaken. After washed, the cells were resuspended in 40% Percoll solution and slowly loaded on the top of 75% Percoll solution. The cells were then centrifuged (2000 rpm, 20 min) and lymphocytes were collected. The cells were once centrifuged and resuspended in Tyrode's buffer. Abs (Biotin-anti-CD4 mAb (clone RM4-5), Biotin-anti-CD8 mAb (clone 53-6.7), Biotin-anti-B220 mAb (clone RA3-6B2), Biotin-anti-CD326 mAb (clone G8.8), PE-anti-CD117 (clone 2B8), AlexaFluor647-anti-LAMP-1 mAb (clone 1D4B)) (Biolegend) were added and cells were then stimulated with OVA, anti-IgE (clone RME-1, BioLegend) and recombinant dimeric murine HRF for 15 min at 37° C. After activation, cells were washed and incubated with FITC-streptavidin (Catalog #405202, Biolegend) for 30 min at 4° C. LAMP-1 expression was detected using FACS Calibur. Data were analyzed using FlowJo software."}, "[2]": {"tested_on": "OVA-induced food allergy (allergic diarrhea)", "experiment": "Therapeutic i.v. treatment with HRF inhibitor after allergic diarrhea is established", "format": "in vivo, mouse", "conditions": "i.v. 30 μg twice", "description": "FIGS. 5A-5F show therapeutic treatment with HRF inhibitor ameliorates the severity of food allergy. Mice were sensitized and i.g. challenged with OVA. By the seventh OVA challenge, all the mice suffered diarrhea. These mice were pretreated i.v. with 30 μg of HRF-2CA (2CA) or PBS (OVA) before challenged with OVA two more times. (FIG. 5A) Procedure scheme. (FIG. 5B) Diarrhea severity (n=11 for OVA, n=13 for HRF-2CA and n=4 for non-sensitized control (not shown); pooled data of two independent experiments). ***: p<0.001 by two-way ANOVA. (FIG. 5C) Total and OVA-specific IgE and IgG1 concentration in sera were measured by ELISA. (FIG. 5D) mMCP-1 in sera was measured by ELISA. (FIG. 5E) Sections of jejunum were stained with chloroacetate esterase. (FIG. 5C—FIG. 5E) *, **, ***: p<0.05, p<0.01, p<0.001 by Student's t-test. (FIG. 5F) Similar i.v. therapeutic treatment of allergic mice was conducted with 30 μg of synthetic N19 peptide (n=12 for OVA and n=12 for pepN19; pooled data of two independent experiments). […] by two-way ANOVA.\nMice were i.p. sensitized with OVA (50 μg/mouse) plus alum on days 0 and 14. From day 28, mice were i.g. challenged with OVA (25 or 50 mg) or PBS (control) three times a week. Before each challenge, mice were starved for 3 h, then i.g. pretreated with GST, GST-N19 (100 μg/mouse), synthetic N19 peptide, or HRF-2CA. The development of diarrhea was monitored for 90 min after OVA challenge. Diarrhea severity (30) was based on states of stool: solid (score 0), funicular (score 1), slurry (score 2), and watery (score 3).\nApplicant next tested whether HRF inhibitors modulate food allergy after diarrhea has begun. […] One cohort of mice was intravenously (i.v.) treated twice with PBS followed by OVA challenge, and the other were i.v. treated twice with 30 μg of HRF-2CA followed by OVA challenge (FIG. 5A)."}}, "data": [{"molecule": "B1", "values": [{"measurement": "HRF-induced activation of mucosal mast cells", "setting": "[1]; HRF dimer 100 μg/ml", "result": "significantly suppressed"}, {"measurement": "OVA-induced activation of mucosal mast cells", "setting": "[1]; OVA 10 ng/ml", "result": "significantly suppressed"}, {"measurement": "clinical scores (diarrhea severity, severity of food allergy)", "setting": "[2]; after diarrhea by the 7th OVA challenge", "result": "significantly reduced"}, {"measurement": "mucosal mast cells", "setting": "[2]; therapeutic", "result": "did not reduce"}, {"measurement": "serum mMCP-1 levels", "setting": "[2]; therapeutic", "result": "modestly but significantly reduced"}, {"measurement": "total IgE, IgG1", "setting": "[2]; therapeutic", "result": "did not reduce"}]}]}
